Results taken from paper PMC12216690, “MORC2 is a phosphorylation-dependent DNA compaction machine” (Nature Communications, 2024).

Legend:
[1] = molecular target: T1, MORC2 WT (Homo sapiens, UniProt Q9Y6X9 1-1032); assay: competition; pre-bound; 90 bp competitor still taken up; EMSA: 20 mM Tris pH 7.4, 75 mM NaCl, 5% glycerol, 0.005% NP-40, 0.5 mM MgCl2, RT 30 min; SPR: 10 mM HEPES pH 7.4, 300 mM NaCl, 3 mM EDTA, 0.05% Tween-20, 20 C; conditions: protein: recombinant; tags: C-terminal 3C site-twin StrepII; chain copies: 2; linear
T1 sequence: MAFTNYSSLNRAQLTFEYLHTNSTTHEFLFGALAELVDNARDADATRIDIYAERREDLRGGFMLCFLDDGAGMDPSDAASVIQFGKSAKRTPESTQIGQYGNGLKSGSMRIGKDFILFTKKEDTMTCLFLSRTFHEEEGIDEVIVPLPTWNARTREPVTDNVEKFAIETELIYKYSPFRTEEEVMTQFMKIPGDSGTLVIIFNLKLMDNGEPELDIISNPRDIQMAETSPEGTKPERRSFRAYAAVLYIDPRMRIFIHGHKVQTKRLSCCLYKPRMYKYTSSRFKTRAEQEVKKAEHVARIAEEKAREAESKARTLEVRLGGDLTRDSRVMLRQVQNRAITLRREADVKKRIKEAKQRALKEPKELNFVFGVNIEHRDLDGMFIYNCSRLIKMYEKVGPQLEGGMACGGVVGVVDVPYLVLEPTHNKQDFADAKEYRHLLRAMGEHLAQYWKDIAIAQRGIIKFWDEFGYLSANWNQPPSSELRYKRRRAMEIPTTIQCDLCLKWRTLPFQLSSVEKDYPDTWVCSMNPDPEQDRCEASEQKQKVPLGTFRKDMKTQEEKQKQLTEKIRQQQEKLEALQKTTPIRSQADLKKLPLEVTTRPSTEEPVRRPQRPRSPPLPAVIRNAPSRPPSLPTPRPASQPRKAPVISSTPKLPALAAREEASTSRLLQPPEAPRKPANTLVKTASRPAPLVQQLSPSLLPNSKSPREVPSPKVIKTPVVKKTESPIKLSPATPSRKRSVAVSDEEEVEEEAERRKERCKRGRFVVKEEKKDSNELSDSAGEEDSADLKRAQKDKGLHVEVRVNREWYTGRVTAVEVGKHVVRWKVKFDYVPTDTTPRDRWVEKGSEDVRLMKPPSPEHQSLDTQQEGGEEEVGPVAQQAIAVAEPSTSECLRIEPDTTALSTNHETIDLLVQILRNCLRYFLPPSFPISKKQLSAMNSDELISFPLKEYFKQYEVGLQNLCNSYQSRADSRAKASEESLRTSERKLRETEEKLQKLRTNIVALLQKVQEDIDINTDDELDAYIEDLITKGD

[2] = molecular target: T1, MORC2 WT; assay: competition; pre-bound; resists 90 bp competitor (clamp); EMSA: 20 mM Tris pH 7.4, 75 mM NaCl, 5% glycerol, 0.005% NP-40, 0.5 mM MgCl2, RT 30 min; SPR: 10 mM HEPES pH 7.4, 300 mM NaCl, 3 mM EDTA, 0.05% Tween-20, 20 C; conditions: protein: recombinant; tags: C-terminal 3C site-twin StrepII; chain copies: 2; closed circle
[3] = molecular target: T2, MORC2 ATPase (Homo sapiens, UniProt Q9Y6X9 1-603); assay: competition; pre-bound; more competitor uptake than WT; EMSA: 20 mM Tris pH 7.4, 75 mM NaCl, 5% glycerol, 0.005% NP-40, 0.5 mM MgCl2, RT 30 min; SPR: 10 mM HEPES pH 7.4, 300 mM NaCl, 3 mM EDTA, 0.05% Tween-20, 20 C; conditions: protein: recombinant; tags: N-terminal 6xHis; closed circle
T2 sequence: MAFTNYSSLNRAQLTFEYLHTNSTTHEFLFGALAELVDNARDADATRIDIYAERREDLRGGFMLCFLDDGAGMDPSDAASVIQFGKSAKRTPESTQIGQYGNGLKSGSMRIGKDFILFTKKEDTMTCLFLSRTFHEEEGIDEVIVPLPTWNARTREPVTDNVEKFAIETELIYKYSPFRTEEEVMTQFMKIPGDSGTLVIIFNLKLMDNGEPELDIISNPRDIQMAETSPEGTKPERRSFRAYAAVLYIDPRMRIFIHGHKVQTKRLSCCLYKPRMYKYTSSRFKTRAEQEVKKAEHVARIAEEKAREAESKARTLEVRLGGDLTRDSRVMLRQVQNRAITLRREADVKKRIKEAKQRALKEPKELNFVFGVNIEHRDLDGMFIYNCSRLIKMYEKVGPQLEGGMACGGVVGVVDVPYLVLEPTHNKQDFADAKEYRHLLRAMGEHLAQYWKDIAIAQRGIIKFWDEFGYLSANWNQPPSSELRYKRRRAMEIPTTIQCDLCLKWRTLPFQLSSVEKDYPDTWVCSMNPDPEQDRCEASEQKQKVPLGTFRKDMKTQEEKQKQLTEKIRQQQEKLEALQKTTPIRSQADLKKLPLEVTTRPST

[4] = molecular target: T3, MORC2 dephosphorylated (Homo sapiens, UniProt Q9Y6X9 1-1032); assay: SPR; lambda-PPase treated; EMSA: 20 mM Tris pH 7.4, 75 mM NaCl, 5% glycerol, 0.005% NP-40, 0.5 mM MgCl2, RT 30 min; SPR: 10 mM HEPES pH 7.4, 300 mM NaCl, 3 mM EDTA, 0.05% Tween-20, 20 C; conditions: protein: recombinant; tags: C-terminal 3C site-twin StrepII; chain copies: 2; label: 5'-biotin on strand 1; blunt
T3 sequence: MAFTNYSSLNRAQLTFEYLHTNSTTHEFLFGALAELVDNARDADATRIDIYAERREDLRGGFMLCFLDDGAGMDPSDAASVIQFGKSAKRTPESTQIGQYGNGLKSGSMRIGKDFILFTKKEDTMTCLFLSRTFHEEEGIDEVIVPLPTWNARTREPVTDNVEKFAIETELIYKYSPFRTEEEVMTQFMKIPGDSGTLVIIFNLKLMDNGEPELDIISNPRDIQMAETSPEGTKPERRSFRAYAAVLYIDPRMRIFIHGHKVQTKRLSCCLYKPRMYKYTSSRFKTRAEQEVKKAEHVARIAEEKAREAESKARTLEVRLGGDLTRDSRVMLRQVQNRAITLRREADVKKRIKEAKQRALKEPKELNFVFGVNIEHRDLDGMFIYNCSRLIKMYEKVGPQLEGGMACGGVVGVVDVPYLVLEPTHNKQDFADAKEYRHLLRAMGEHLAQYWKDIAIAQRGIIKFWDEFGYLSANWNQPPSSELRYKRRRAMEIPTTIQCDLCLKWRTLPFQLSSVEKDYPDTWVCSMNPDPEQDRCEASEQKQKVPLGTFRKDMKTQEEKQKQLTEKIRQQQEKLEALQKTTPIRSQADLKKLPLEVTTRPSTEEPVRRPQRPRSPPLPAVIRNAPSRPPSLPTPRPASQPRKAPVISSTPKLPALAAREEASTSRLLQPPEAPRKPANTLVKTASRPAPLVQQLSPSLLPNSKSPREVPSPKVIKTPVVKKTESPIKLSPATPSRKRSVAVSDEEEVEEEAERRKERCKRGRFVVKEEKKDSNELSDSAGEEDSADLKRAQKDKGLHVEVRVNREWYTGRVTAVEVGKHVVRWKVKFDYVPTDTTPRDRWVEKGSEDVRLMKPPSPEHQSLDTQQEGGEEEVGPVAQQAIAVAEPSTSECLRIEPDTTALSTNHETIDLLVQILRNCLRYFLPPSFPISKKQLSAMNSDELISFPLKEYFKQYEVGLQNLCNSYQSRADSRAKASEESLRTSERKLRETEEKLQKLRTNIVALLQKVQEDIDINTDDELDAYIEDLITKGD

[5] = molecular target: T1, MORC2 WT; assay: SPR; EMSA: 20 mM Tris pH 7.4, 75 mM NaCl, 5% glycerol, 0.005% NP-40, 0.5 mM MgCl2, RT 30 min; SPR: 10 mM HEPES pH 7.4, 300 mM NaCl, 3 mM EDTA, 0.05% Tween-20, 20 C; conditions: protein: recombinant; tags: C-terminal 3C site-twin StrepII; chain copies: 2; label: 5'-biotin on strand 1; blunt
[6] = molecular target: T4, MORC2 CC2 (Homo sapiens, UniProt Q9Y6X9 544-587); assay: EMSA; DNA length inferred; EMSA: 20 mM Tris pH 7.4, 75 mM NaCl, 5% glycerol, 0.005% NP-40, 0.5 mM MgCl2, RT 30 min; SPR: 10 mM HEPES pH 7.4, 300 mM NaCl, 3 mM EDTA, 0.05% Tween-20, 20 C; conditions: protein: recombinant; tags: C-terminal 3C site-twin StrepII; label: 5' 6FAM, IRDye680 or IRDye800 on XOm1; blunt
T4 chain: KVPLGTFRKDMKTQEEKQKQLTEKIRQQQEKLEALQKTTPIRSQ

[7] = molecular target: T5, MORC2 CC3 (Homo sapiens, UniProt Q9Y6X9 738-776); assay: as above; conditions: protein: recombinant; tags: C-terminal 3C site-twin StrepII; label: 5' 6FAM, IRDye680 or IRDye800 on XOm1; blunt
T5 chain: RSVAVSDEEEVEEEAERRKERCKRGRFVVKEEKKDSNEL

[8] = molecular target: T6, MORC2 GHKL+CC1 (Homo sapiens, UniProt Q9Y6X9 1-495); assay: EMSA; negligible binding; EMSA: 20 mM Tris pH 7.4, 75 mM NaCl, 5% glycerol, 0.005% NP-40, 0.5 mM MgCl2, RT 30 min; SPR: 10 mM HEPES pH 7.4, 300 mM NaCl, 3 mM EDTA, 0.05% Tween-20, 20 C; conditions: protein: recombinant; tags: C-terminal 3C site-twin StrepII; label: 5' 6FAM, IRDye680 or IRDye800 on XOm1; blunt
T6 sequence: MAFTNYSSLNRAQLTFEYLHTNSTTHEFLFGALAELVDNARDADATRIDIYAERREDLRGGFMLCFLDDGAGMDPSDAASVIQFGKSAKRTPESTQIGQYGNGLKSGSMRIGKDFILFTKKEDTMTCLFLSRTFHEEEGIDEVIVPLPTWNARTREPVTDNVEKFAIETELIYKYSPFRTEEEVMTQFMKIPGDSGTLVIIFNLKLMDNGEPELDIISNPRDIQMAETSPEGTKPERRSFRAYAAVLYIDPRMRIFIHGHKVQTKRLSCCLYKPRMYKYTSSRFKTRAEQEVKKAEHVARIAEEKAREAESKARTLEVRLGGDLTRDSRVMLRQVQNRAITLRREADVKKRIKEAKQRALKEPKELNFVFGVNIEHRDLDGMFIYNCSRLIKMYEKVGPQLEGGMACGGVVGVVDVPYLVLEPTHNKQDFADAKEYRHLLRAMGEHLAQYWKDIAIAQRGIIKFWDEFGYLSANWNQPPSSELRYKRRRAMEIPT

[9] = molecular target: T7, MORC2 CW (Homo sapiens, UniProt Q9Y6X9 496-603); assay: as above; conditions: protein: recombinant; tags: C-terminal 3C site-twin StrepII; label: 5' 6FAM, IRDye680 or IRDye800 on XOm1; blunt
T7 sequence: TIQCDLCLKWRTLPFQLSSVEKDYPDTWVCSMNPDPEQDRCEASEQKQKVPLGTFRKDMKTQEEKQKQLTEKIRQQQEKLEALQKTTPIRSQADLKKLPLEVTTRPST

B1: 101 bp linear dsDNA (dsDNA)
DNA 1: CGGTCGTTTAGCATACTAATCTGAGAGTCCGACGGTCGTCAGTCAGTCATGACTTCACAGAGGAAGGGCCAGTATCCTGTCCAAACTTGATGCTCGAATTC
DNA 2: GAATTCGAGCATCAAGTTTGGACAGGATACTGGCCCTTCCTCTGTGAAGTCATGACTGACTGACGACCGTCGGACTCTCAGATTAGTATGCTAAACGACCG
binding result [1]: binds

B2: 101 bp circular dsDNA (dsDNA)
DNA 1: CGGTCGTTTAGCATACTAATCTGAGAGTCCGACGGTCGTCAGTCAGTCATGACTTCACAGAGGAAGGGCCAGTATCCTGTCCAAACTTGATGCTCGAATTC
DNA 2: GAATTCGAGCATCAAGTTTGGACAGGATACTGGCCCTTCCTCTGTGAAGTCATGACTGACTGACGACCGTCGGACTCTCAGATTAGTATGCTAAACGACCG
binding result [2]: binds | binding result [3]: binds

B3: 60 bp dsDNA (biotin, SPR) (dsDNA)
DNA 1: ACGCTGCCGAATTCTACCAGTGCCTTGCTAGGACATCTTTGCCCACCTGCAGGTTCACCC
DNA 2: GGGTGAACCTGCAGGTGGGCAAAGATGTCCTAGCAAGGCACTGGTAGAATTCGGCAGCGT
Kd [4]: 15.3 ± 9.1 nM | Kd [5]: 26.3 ± 11.4 nM

B4: 60 bp dsDNA (XOm1/XOm1.comp) (dsDNA)
DNA 1: ACGCTGCCGAATTCTACCAGTGCCTTGCTAGGACATCTTTGCCCACCTGCAGGTTCACCC
DNA 2: GGGTGAACCTGCAGGTGGGCAAAGATGTCCTAGCAAGGCACTGGTAGAATTCGGCAGCGT
binding result [6]: binds | binding result [7]: no binding | binding result [8]: no binding | binding result [9]: no binding
